For ten substances, Kd and IC50 results are on record in patent US20250090699A1, “FAP TARGETING CYCLIC PEPTIDES AND CONJUGATES THEREOF” (Novartis AG, priority 2023, published 2025).

Starred links: 1 amine or outer side, 2 acyl side, 3 side chain; linkers in the order of their positions; H or OH if unused. Non-standard residues stand in square brackets, D forms with d. *: point of attachment. F(4amPEG2NH-NOTA-AlF) = aluminum [18F]fluoride complex of (S)-2,2'-(7-(1-(4-(2-amino-2-carboxyethyl)phenyl)-3,12-dioxo-5,8-dioxa-2,11-diazatridecan-13-yl)-1,4,7-triazonane-1,4-diyl)diacetic acid (Phe with 4-aminomethyl-PEG2-NOTA-Al18F), O=C([O-])CN1CCN(CC(=O)[O-])CCN(CC(=O)NCCOCCOCC(=O)NCc2ccc(C[C@H](N[*:1])C(=O)[*:2])cc2)CC1.[18F][Al+2]; F(4OEtNHDOTA-Lu) = lutetium complex of (S)-2,2',2''-(10-(2-((2-(4-(2-amino-2-carboxyethyl)phenoxy)ethyl)amino)-2-oxoethyl)-1,4,7,10-tetraazacyclododecane-1,4,7-triyl)triacetic acid (Phe with 4-O-ethylamino-DOTA-Lu), O=C([O-])CN1CCN(CC(=O)[O-])CCN(CC(=O)NCCOc2ccc(C[C@H](N[*:1])C(=O)[*:2])cc2)CCN(CC(=O)[O-])CC1.[Lu+3]; F(4OEtNHDOTA-Ga) = gallium complex of (S)-2,2',2''-(10-(2-((2-(4-(2-amino-2-carboxyethyl)phenoxy)ethyl)amino)-2-oxoethyl)-1,4,7,10-tetraazacyclododecane-1,4,7-triyl)triacetic acid (Phe with 4-O-ethylamino-DOTA-Ga), O=C([O-])CN1CCN(CC(=O)[O-])CCN(CC(=O)NCCOc2ccc(C[C@H](N[*:1])C(=O)[*:2])cc2)CCN(CC(=O)[O-])CC1.[Ga+3]; F(4amPEG2NH-NOTA-Ga) = gallium complex of (S)-2,2'-(7-(1-(4-(2-amino-2-carboxyethyl)phenyl)-3,12-dioxo-5,8-dioxa-2,11-diazatridecan-13-yl)-1,4,7-triazonane-1,4-diyl)diacetic acid (Phe with 4-aminomethyl-PEG2-NOTA-Ga), O=C([O-])CN1CCN(CC(=O)[O-])CCN(CC(=O)NCCOCCOCC(=O)NCc2ccc(C[C@H](N[*:1])C(=O)[*:2])cc2)CC1.[Ga+3]; F(4amDOTA-Lu) = lutetium complex of (S)-2,2',2''-(10-(2-((4-(2-amino-2-carboxyethyl)benzyl)amino)-2-oxoethyl)-1,4,7,10-tetraazacyclododecane-1,4,7-triyl)triacetic acid (Phe with 4-aminomethyl-DOTA-Lu), O=C([O-])CN1CCN(CC(=O)[O-])CCN(CC(=O)NCc2ccc(C[C@H](N[*:1])C(=O)[*:2])cc2)CCN(CC(=O)[O-])CC1.[Lu+3]; F(4OEtnHNODAGA-Lu) = lutetium complex of 2,2'-(7-(4-((2-(4-((S)-2-amino-2-carboxyethyl)phenoxy)ethyl)amino)-1-carboxy-4-oxobutyl)-1,4,7-triazonane-1,4-diyl)diacetic acid (Phe with 4-O-ethylamino-NODAGA-Lu); K(COpipzaa) = N6-(4-(carboxymethyl)piperazine-1-carbonyl)-L-lysine, O=C(NCCCC[C@H](N[*:1])C(=O)[*:2])N1CCN(CC(=O)[*:3])CC1; COpipzaa = 4-(carboxymethyl)piperazine-1-carbonyl, O=C(O)CN1CCN(C(=O)*)CC1; F(4OEtNHRDOTAGA-Ga) = Phe with 4-O-ethyl-NH-DOTAGA, Ga complex; F(4OEtNHRDOTAGA-Lu) = Phe with 4-O-ethyl-NH-DOTAGA, Lu complex; hS(Pr) = O-propyl-L-homoserine, CCCOCC[C@H](N[*:1])C(=O)[*:2]; 3Pal(6-NH2) = Nc1ccc(C[C@H](N)C(=O)O)cn1; NMeF = CN[C@@H](Cc1ccccc1)C(=O)O; Ahp(2) = CCCCC[C@H](N)C(=O)O

Assay [1] concerns the target T1, mouse FAP (Mus musculus, UniProt P97321).
T1 construct: biotinylated His, Avi tag, mouse FAP (26-761, FAP-M82Q5); His; Avi tag (biotinylated); purchased AcroBiosystems FAP-M82Q5
T1 sequence (P97321 26-761): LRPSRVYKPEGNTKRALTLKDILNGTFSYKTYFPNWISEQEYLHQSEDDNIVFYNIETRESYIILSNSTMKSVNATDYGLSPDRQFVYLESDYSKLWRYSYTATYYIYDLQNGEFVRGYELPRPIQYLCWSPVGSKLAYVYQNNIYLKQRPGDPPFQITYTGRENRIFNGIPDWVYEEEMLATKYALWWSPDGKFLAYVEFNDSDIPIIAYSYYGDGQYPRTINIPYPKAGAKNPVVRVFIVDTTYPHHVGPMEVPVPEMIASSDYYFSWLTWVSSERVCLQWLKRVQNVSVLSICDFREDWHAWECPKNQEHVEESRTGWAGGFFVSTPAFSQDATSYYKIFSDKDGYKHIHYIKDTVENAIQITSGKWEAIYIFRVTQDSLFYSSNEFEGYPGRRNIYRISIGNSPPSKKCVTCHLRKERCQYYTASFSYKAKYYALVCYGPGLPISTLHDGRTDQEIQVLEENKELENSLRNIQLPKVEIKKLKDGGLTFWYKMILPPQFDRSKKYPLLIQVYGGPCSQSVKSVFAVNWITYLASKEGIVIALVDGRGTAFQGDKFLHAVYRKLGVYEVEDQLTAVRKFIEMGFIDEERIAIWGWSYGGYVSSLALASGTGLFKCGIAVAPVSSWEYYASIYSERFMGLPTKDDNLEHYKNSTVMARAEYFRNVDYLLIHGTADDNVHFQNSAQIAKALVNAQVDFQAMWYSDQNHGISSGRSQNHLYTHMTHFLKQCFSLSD
As to the kind of experiment: Surface plasmon resonance (SPR) for peptide affinity, mouse FAP. The class given is binding. The gist of the method: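 KD values come from a 1:1 kinetic fit of single-cycle SPR data: 8 peptide concentrations, 25 °C, 30 μL/min, HEPES-buffered saline pH 7.6 with 2% DMSO. Targets were His/Avi-tagged human (26-760) or mouse (26-761) FAP, amine-coupled to CM5 or held on a CAPture chip.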

A further assay concerns the target T2, human FAP (Homo sapiens, UniProt Q12884).
T2 construct: the biotinylated His, Avi tag, human FAP (26-760, FAP-H82Q6); His; Avi tag (biotinylated); purchased AcroBiosystems FAP-H82Q6
T2 sequence (Q12884 26-760): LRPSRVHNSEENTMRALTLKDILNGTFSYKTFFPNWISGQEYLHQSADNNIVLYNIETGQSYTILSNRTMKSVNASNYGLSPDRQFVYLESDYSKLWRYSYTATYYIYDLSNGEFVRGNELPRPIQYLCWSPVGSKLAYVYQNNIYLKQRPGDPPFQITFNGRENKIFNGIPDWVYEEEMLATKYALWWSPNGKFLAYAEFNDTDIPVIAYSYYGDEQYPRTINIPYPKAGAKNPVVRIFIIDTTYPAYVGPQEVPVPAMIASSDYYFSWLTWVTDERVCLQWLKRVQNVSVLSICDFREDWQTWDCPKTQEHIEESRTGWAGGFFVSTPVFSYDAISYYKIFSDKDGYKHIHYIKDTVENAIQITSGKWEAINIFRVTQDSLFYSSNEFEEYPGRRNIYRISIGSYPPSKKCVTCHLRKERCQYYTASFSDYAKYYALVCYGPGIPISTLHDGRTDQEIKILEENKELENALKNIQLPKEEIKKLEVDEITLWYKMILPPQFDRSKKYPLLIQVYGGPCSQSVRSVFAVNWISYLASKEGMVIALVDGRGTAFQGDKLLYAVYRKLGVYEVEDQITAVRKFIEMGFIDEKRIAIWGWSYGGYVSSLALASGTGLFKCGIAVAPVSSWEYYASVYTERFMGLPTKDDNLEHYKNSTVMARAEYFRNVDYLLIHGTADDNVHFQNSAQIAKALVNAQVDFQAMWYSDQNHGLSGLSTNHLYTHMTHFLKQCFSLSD
As to the kind of experiment: Enzymatic FAP competition assay (Z-Gly-Pro-AMC fluorescence), human FAP. The conditions noted are these: read-out: h. FAP, Enz., IC50. The format is biochemical. The gist of the method:
(§1)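 IC50 values come from curve fitting of duplicate % inhibition data on AMC fluorescence (ex 380, em 460 nm) after 4 h at 22-24° C with 50 μM Z-Gly-Pro-AMC. Beforehand, peptides up to 1 μM (14 levels) sat 24 h with 0.01 nM human (26-760) or mouse (26-761) tagged FAP in phosphate buffer pH 7.5, NaCl, Tween20, 1% DMSO.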

Assay [2] addresses T1, mouse FAP. As to the kind of experiment: Enzymatic FAP competition assay (Z-Gly-Pro-AMC fluorescence), mouse FAP. The format is biochemical. The conditions noted are these: read-out: m. FAP, Enz., IC50. The gist of the method: as §1

The Kd is a measure of binding affinity in units of concentration. Lower therefore signals tighter binding. A word on the IC50: it is the concentration needed to halve the response being measured. With “Gly-Gly-NMePhe-F(4OEtNHDOTA-Ga)-Ahp-Trp-Gly-K(COpipzaa)-Asp-D-Pro (cyclo(GG[NMeF][F(4OEtNHDOTA-Ga)][Ahp(2)]WG[K(COpipzaa)]D[dP]); also: Ga complex of DOTA) [Example C50]”, the Kd in the assay with mouse FAP [1] is < 0.02 nM. Also, the IC50 with human FAP stood at 0.046 nM; in the assay with mouse FAP [2], 0.052 nM.
The matching figures for “Gly-Gly-NMePhe-F(4OEtNHDOTA-Ga)-Ahp-Trp-Gly-Tyr-Asp-D-Pro (cyclo(GG[NMeF][F(4OEtNHDOTA-Ga)][Ahp(2)]WGYD[dP]); also: Ga complex of DOTA) [Example C51]”: 0.026 nM, 0.03 nM and 0.058 nM.
The matching figures for “Gly-Gly-NMePhe-F(4OEtNHDOTA-Lu)-Ahp-Trp-Gly-3PyA(6NH2)-Asp-D-Pro (cyclo(GG[NMeF][F(4OEtNHDOTA-Lu)][Ahp(2)]WG[3Pal(6-NH2)]D[dP]); also: Lu complex of DOTA) [Example C24]”: 0.035 nM, 0.013 nM and 0.059 nM.
For “Gly-Gly-NMePhe-F(4OEtNHDOTA-Lu)-Ahp-Trp-Gly-K(COpipzaa)-Asp-D-Pro (cyclo(GG[NMeF][F(4OEtNHDOTA-Lu)][Ahp(2)]WG[K(COpipzaa)]D[dP]); also: Lu complex of DOTA) [Example C27]” the same measures were 0.102 nM, 0.026 nM and 0.072 nM.
For the substance “Gly-Gly-NMePhe-F(4OEtNHRDOTAGA-Ga)-Ahp-Trp-Gly-Tyr-Asp-D-Pro (cyclo(GG[NMeF][F(4OEtNHRDOTAGA-Ga)][Ahp(2)]WGYD[dP]); also: Ga complex of DOTAGA) [Example C38]”, the Kd in the assay with mouse FAP [1] was 0.037 nM. Also, the IC50 worked out at 0.012 nM in the assay with human FAP and 0.048 nM with mouse FAP [2].
For “Gly-Gly-NMePhe-F(4OEtNHRDOTAGA-Lu)-Ahp-Trp-Gly-Tyr-Asp-D-Pro (cyclo(GG[NMeF][F(4OEtNHRDOTAGA-Lu)][Ahp(2)]WGYD[dP]); also: Lu complex of DOTAGA) [Example C31]” the same measures were < 0.01 nM, 0.007 nM and 0.027 nM.
The matching figures for “Gly-Gly-NMePhe-F(4OEtnHNODAGA-Lu)-Ahp-Trp-Gly-Tyr-Asp-D-Pro (cyclo(GG[NMeF][F(4OEtnHNODAGA-Lu)][Ahp(2)]WGYD[dP]); also: Lu complex) [Example C30]”: < 0.017 nM, 0.034 nM and 0.193 nM.
In the case of “Gly-Gly-NMePhe-F(4amDOTA-Lu)-Ahp-Trp-Gly-Tyr-Asp-D-Pro (cyclo(GG[NMeF][F(4amDOTA-Lu)][Ahp(2)]WGYD[dP]); also: Lu complex) [Example C16]”, binding with mouse FAP [1] was characterised by a dissociation constant (Kd) of 0.4 nM. Also, the IC50 in the assay with human FAP amounted to 0.084 nM; in the assay with mouse FAP [2], 0.29 nM.
For “Gly-Gly-NMePhe-F(4amPEG2NH-NOTA-AlF)-hS(Pr)-Trp-Gly-K(COpipzaa)-Asp-D-Pro (cyclo(GG[NMeF][F(4amPEG2NH-NOTA-AlF)][hS(Pr)]WGK(COpipzaa)D[dP]); also: Al[18F]F complex) [Example C53]” the same measures were < 0.035 nM, 0.013 nM and 0.035 nM.
For “Gly-Gly-NMePhe-F(4amPEG2NH-NOTA-Ga)-hS(Pr)-Trp-Gly-K(COpipzaa)-Asp-D-Pro (cyclo(GG[NMeF][F(4amPEG2NH-NOTA-Ga)][hS(Pr)]WGK(COpipzaa)D[dP]); also: Ga complex) [Example C41]” the same measures were < 0.043 nM, 0.013 nM and 0.031 nM.
